Measurements taken from patent US20120190612A1, “METHODS OF TREATMENT” (CRC FOR ASTHMA AND AIRWAYS LTD., priority 2009, published 2012).

How the values were obtained:
[1] = system: lymphatic endothelial cells
Description: The MTT assay was performed as described above. […] To differentiate between antiproliferative and cytotoxic effects, cells were counted 72 hrs after treatment with various concentrations of lamstatin.

fibroblasts (3567) = assay: MTT cell viability assay, fibroblasts; type: cell-based; settings: increasing concentrations, 72 hrs
HMVEC-LLy cells = assay: Real-time impedance (xCellgenix) cell attachment and proliferation; type: cell-based, human
Description: HMVEC-LLy cells were treated with lamstatin and cell attachment and proliferation were measured in realtime using the xCellgenix system (Roche). This system measures a cell index factor, representing impedance mediated by cells. Gold electrodes on the well bottom measure this impedance and the more cells attach to the bottom the higher the impedance (cell index). This measurement allows for detecting early events after treatment such as detachment (e.g. through cell death) or inhibition of proliferation and reduction of cell number.
A Xcellgenix gold coated microtiter plate was seeded with 5×10^3 cells (HMVEC-LLy) per well and incubated in 100 μL complete EBM-2 for 24 hrs prior to treatment. In fresh media, serial dilutions of lamstatin or vehicle (1 nM EDTA, pH 3.0) were prepared. Cell culture supernatant was removed and replaced by 100 μL fresh serially diluted lamstatin. The plate was locked into the Xcellgenix recorder and a signal of impedance recorded at 5 min intervals for 6 hrs, and subsequently every 60 min.

outer nodule cells (LAM) = assay: Tube formation of LAM outer nodule cells; type: cell-based; settings: 5 hrs
Description: To assess formation of tubular structures, 48 well plates were coated with 130 μL Matrigel® (BD Bioscience), which was solidified at 37° C. over 45 min. 2×10^4 HMVEC-LLy cells in complete EBM-2 (500 μL) were seeded per well and allowed to attach for 30 min, before lamstatin, tumstatin, CP17 or vehicle was added to the wells. Photos were taken with a Kodak Digital Camera every 2 hrs. Tube formation peaked at 24 hrs, at which time tubular structures were further analysed to determine length (in pixels) and number of tubes per high power field (HPF) area (px^2). The HPF was divided in nine regions of equal size and tubes per region were counted. Mean and SEM were calculated and plotted.
The inventors then analysed tube formation in LAM nodule cells and found only the outer nodule cells responded with pseudo-tube formation. Assay for tube formation was performed as described above in Example 2. Photos were taken at 2, 3, 4, 5 and 24 hrs after seeding. Lamstatin was added directly after seeding to inhibit prior tube formation. Tube formation peaked at 5 hrs and after 24 hrs no tubular structures were observed (both treated and untreated) (data not shown).

integrins α5 and β1 = target: T1, integrins α5 and β1 (Homo sapiens, UniProt P05556+P08648); assay: Integrins mediating binding of lymphatic endothelial cells (data not shown); type: cell-based; settings: HMVEC-LLy in vitro, different from HUVECs
T1 construct: endogenous in cells; host or cells: HMVEC-LLy (human primary lymphatic endothelial cells)

integrin β1 = target: T2, integrin β1 (Homo sapiens, UniProt P05556+P08648); assay: Integrin binding of HMVEC-LLy cells on antibody-coated plates; type: cell-based; settings: lamstatin 10 μg/ml, CP17 5 μM, 1 h
T2 construct: endogenous in cells; host or cells: HMVEC-LLy (human primary lymphatic endothelial cells)
T2 sequence (P05556 21-798): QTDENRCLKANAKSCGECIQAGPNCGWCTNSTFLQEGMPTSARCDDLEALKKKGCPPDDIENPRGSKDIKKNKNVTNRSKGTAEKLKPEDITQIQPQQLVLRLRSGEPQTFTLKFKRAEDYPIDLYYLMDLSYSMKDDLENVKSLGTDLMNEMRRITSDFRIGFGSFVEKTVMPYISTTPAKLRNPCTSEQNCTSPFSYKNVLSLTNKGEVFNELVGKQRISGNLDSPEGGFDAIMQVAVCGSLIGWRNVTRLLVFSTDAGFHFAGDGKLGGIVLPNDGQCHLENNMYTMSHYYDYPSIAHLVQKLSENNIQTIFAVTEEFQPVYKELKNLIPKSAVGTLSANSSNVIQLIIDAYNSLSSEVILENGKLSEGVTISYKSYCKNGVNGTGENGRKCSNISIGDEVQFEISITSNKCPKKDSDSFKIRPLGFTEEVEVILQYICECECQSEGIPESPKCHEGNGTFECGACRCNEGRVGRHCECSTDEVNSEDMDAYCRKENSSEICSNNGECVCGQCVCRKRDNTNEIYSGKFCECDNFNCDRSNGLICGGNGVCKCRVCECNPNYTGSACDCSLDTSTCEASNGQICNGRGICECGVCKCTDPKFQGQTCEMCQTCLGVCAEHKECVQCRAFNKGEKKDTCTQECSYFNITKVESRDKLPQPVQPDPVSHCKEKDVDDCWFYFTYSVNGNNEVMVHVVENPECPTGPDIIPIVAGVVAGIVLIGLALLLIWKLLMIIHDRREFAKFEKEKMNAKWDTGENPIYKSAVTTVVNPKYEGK
T2 sequence (P08648 42-894 limits assumed): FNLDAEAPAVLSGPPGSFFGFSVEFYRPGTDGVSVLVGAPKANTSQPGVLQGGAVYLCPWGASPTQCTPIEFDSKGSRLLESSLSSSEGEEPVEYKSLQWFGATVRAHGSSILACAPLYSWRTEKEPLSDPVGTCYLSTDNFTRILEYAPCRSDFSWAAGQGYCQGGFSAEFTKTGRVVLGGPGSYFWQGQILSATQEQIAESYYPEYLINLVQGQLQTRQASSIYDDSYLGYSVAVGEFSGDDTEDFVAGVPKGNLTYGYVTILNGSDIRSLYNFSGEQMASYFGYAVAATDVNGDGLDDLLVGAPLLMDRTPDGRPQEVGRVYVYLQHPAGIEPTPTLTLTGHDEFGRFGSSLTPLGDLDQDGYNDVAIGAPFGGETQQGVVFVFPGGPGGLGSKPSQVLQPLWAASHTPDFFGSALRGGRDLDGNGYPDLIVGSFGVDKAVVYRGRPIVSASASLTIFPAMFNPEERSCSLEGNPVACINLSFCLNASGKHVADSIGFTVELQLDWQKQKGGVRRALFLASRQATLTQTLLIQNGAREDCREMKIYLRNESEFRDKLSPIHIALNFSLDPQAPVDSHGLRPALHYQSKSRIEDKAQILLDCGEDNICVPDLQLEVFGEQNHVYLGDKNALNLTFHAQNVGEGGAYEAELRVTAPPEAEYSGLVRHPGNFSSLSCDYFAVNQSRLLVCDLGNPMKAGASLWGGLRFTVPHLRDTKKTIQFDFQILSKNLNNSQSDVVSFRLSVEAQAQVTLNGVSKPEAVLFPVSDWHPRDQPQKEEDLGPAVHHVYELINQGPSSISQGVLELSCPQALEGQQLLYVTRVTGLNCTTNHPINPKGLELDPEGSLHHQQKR
T2 sequence (P08648 895-1049 limits assumed): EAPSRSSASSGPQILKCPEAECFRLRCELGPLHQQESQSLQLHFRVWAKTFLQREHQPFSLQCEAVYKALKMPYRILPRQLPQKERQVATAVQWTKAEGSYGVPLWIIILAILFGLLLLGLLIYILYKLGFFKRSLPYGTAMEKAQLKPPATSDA
Description: (§1) Antibodies for integrin α5 (MAB1956Z; MAB1953Z), integrin β1 (MAB2253Z) and integrin β3 (MAB1957Z) (all Millipore, USA) were coated to 96 well tissue culture plates (Nunc, USA) at a concentration of 10 μg/mL overnight at 4° C. in sterile coating buffer (50 mM Na2CO3, 50 mM NaHCO3, pH 9.6). Plates then were blocked with sterile 1% BSA/PBS for 1 h at 37° C. and washed twice with EBM-2 MV (Lonza, Basel, Switzerland). MMVEC-LLy cells were carefully removed from culture flasks with non-enzymatic detachment solution (Trevigen, Md., USA) and washed twice with EBM-2 (Lonza, Basel, Switzerland). Volume was adjusted to a cell concentration of 50,000 cells/100 μL and divided into aliquots for treatment with recombinant lamstatin (10 μg/ml), CP17 (5 μM) or vehicle (1 nM EDTA, pH 3.5) only. Cells were then transferred to the antibody-coated plates and incubated for 1 h at 37° C. Wells were then washed with HANKS twice to remove unbound cells and fixed with 4% paraformaldehyde (in PBS) for 15 min at room temperature. Wells thereafter were photographed with an Olypmus CAMEDIA C-4000 camera mounted to an Olympus CK2 microscope. Pictures were divided into 25 segments and cells of 5 center-near quadrants were counted and averaged. […] Using a similar approach, the inventors observed no expression of integrin α4 on the surface of HMVEC-LLy cells (data not shown).

integrin β3 = target: T3, integrin β3 (Homo sapiens, UniProt P05106); assay: as above; type: cell-based; settings: lamstatin 10 μg/ml, CP17 5 μM, 1 h
T3 construct: endogenous in cells; host or cells: HMVEC-LLy (human primary lymphatic endothelial cells)
T3 sequence (P05106 27-788): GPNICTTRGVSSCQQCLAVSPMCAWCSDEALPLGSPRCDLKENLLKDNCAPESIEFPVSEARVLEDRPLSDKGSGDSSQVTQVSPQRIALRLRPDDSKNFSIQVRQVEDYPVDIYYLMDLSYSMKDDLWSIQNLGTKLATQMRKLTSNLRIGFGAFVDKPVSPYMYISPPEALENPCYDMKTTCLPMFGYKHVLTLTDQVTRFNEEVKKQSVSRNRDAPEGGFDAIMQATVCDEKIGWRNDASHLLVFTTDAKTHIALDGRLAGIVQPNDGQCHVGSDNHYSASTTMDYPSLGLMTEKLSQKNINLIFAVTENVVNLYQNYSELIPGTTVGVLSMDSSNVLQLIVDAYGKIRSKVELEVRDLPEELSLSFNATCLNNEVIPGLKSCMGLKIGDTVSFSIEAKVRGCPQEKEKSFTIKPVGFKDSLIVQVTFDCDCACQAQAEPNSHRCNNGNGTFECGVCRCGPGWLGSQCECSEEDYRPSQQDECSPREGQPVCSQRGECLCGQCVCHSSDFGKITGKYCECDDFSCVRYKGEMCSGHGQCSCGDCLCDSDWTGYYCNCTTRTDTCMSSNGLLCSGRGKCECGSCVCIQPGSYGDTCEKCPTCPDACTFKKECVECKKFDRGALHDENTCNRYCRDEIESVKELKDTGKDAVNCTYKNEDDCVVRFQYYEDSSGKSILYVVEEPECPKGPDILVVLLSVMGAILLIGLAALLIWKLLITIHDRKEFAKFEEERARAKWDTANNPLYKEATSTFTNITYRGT
T3 sequence (P06756 31-889 limits assumed, further chain): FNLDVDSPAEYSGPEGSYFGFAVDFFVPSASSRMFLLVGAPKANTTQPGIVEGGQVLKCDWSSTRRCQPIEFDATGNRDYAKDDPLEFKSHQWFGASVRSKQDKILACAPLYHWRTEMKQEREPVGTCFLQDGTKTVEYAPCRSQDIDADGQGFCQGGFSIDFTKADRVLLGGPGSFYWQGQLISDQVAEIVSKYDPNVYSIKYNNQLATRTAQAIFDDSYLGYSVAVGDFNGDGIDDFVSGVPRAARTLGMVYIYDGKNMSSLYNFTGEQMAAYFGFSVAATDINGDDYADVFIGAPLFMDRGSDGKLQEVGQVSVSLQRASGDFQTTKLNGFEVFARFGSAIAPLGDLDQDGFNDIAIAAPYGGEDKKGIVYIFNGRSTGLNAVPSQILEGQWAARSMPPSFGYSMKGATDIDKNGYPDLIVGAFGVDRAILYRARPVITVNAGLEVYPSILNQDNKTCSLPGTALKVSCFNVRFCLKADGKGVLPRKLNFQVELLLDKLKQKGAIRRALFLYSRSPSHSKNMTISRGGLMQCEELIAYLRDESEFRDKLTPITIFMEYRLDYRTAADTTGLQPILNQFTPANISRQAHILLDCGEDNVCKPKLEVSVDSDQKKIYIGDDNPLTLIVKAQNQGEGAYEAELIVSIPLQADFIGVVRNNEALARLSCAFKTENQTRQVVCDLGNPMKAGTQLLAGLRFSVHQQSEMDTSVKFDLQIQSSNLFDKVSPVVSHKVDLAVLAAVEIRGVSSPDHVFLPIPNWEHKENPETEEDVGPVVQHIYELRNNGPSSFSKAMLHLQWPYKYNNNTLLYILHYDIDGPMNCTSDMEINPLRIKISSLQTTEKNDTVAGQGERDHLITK
T3 sequence (P06756 891-1048 limits assumed, further chain): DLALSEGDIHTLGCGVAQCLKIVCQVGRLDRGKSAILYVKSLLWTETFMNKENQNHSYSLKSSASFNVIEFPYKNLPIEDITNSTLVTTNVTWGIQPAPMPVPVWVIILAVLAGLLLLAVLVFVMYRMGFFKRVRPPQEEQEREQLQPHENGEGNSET
Description: as §1

integrin α5 = target: T4, integrin α5 (Homo sapiens, UniProt P05556+P08648); assay: as above; type: cell-based; settings: lamstatin 10 μg/ml, CP17 5 μM, 1 h
T4 construct: endogenous in cells; host or cells: HMVEC-LLy (human primary lymphatic endothelial cells)
T4 sequence (P08648 42-894 limits assumed): as the sequence (P08648 42-894 limits assumed) above
T4 sequence (P08648 895-1049 limits assumed): as the sequence (P08648 895-1049 limits assumed) above
T4 sequence (P05556 21-798): as the sequence (P05556 21-798) above
Description: as §1

B1: lamstatin: NC1 domain of the α5 chain of collagen type IV; human amino acid sequence SEQ ID NO:1; recombinant (protein, listed as Homo sapiens)
chain: GFLITRHSQTTDAPQCPQGTLQVYEGFSLLYVQGNKRAHGQDLGTAGSCLRRFSTMPFMFCNINNVCNFASRNDYSYWLSTPEPMPMSMQPLKGQSIQPFISRCAVCEAPAVVIAVHSQTIQIPHCPQGWDSLWIGYSFMMHTSAGAEGSGQALASPGSCLEEFRSAPFIECHGRGTCNYYANSYSFWLATVDVSDMFSKPQSETLKAGDLRTRISRCQVCMKRT
- viable cells (trypan blue exclusion) [1]: no cytotoxic effect
- cell count ([1]; 10 μg/mL, 72 hrs after treatment, data not shown): anti-proliferative effect was observed
- cell viability (MTT) (fibroblasts (3567)): only lymphatic endothelial cells responded
- time required to reach a threshold cell index of 1, compared with vehicle control (HMVEC-LLy cells; 10 μg/mL): double
- cell attachment (HMVEC-LLy cells; after 55 min of treatment, various concentrations): reduction in cell attachment
- tube length (outer nodule cells (LAM)): significantly inhibited
- tube number (tubes per square pixel) (outer nodule cells (LAM)): significantly inhibited
- predominant integrins that mediate the binding of lymphatic endothelial cells (integrins α5 and β1): integrins α5 and β1
- cell binding in presence of monoclonal antibody against integrin β1 (integrin β1): significantly inhibited cell binding
- cell binding in presence of monoclonal antibody against integrin β3 (integrin β3): no effect on binding
- cell binding in presence of monoclonal antibody against integrin α5 (integrin α5): significantly inhibited cell binding
